Results: the supplement of paper PMC12764529
± gives the half width of the 95% confidence interval.

Legend:
[1] = folding stability dG unfold from trypsin proteolysis; higher = more stable
Protocol: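 Folding stability of de novo designed mini-proteins (<80 aa, no Cys; designed by TrROS, TrMRF, ProteinMPNN and the joint model) was measured by cDNA display proteolysis with trypsin and chymotrypsin. Each protease was used at 11 concentrations in a threefold dilution series plus a no-protease condition. K50 was inferred by Bayesian fitting of sequencing counts, and dG unfold was derived against a sequence-predicted unfolded-state K50 (Tsuboyama et al. method). Sequences shown include variable-length N-terminal GS-type padding (SAGGSAGG...) inside a display construct carrying a PA tag. Rows were kept only if the AF2 dimer inter-PAE was >15, to exclude likely homo-oligomers.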

[2] = folding stability dG unfold (combined trypsin and chymotrypsin); higher = more stable
Outline: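 Mini-proteins designed to be under 80 residues and free of cysteine were carried in a PA-tagged cDNA display construct and digested with trypsin and with chymotrypsin. Each protease was applied at 11 threefold-diluted concentrations, alongside a no-protease condition, before sequencing. K50 came from Bayesian fitting of the sequencing counts, and unfolding free energy was obtained by comparing it with a sequence-predicted unfolded-state K50 and a shared folded-state K50, for each protease separately or for both together. Designs were retained only if their AlphaFold2 dimer inter-PAE exceeded 15.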

Row | Sequence | folding stability dG unfold [1] | folding stability dG unfold [2]
1 | SGSMTPLTVEREVDITVVETRFLPNGGEVKKRRVTVTTTVTLPGGVPVSTQTTTIESPDLSEEEILERLSSA [r9_371_JUSTAS] | 0.357 ± 0.051 kcal/mol | -0.752 ± 0.15 kcal/mol
2 | SAGGSAGGSAGGGMKVVIPKEEAEKKGLTEAKLKEIEEKLKAKGIKVEIKLISSEEPELLSAGGSAGGSAGG [r7_972_JUSTAS] | 0.136 ± 0.12 kcal/mol | < -1 kcal/mol
3 | SAGGSAGGSAGGSGNFDKDGNKLTVYYPNTKKPVTIDFPVEDIFEFIKNLPPNVAKVDASAGGSAGGSAGGS [r4_282_TrMRF] | -0.201 ± 0.049 kcal/mol | -0.869 ± 0.4 kcal/mol
4 | SAGNPKIIEEETIPMPDGGPMKIYVDPEAPRIEIYNPDNGKPEEFPIPPGEKLEFPMPPDGWMTVKVLSAGG [r19_118_TrROS] | -0.279 ± 0.14 kcal/mol | < -1 kcal/mol
5 | SAGGSAGGSAGGPKTVTISGGPLEDLLEKLDNMPPDDTITIHHPGGYYTVKVENDKIKIVSAGGSAGGSAGG [r7_560_TrROS] | -0.416 ± 0.13 kcal/mol | -0.69 ± 0.22 kcal/mol
6 | SAGGIKLPPGQEIEGKIQYPFPDGMFMTSEQPIRIPPVPPPPPEVEVHLPDGERKPVRSPEEADDAASAGGS [r16_580_TrROS] | 0.0184 ± 0.049 kcal/mol | -0.511 ± 0.26 kcal/mol
7 | SAGGNVEIERNPDGMITVEFPMKSPEQAIEEVKNFLQQQGWKIKDIPVERPPNGWVKITIPIKPPGASAGGS [r8_253_TrROS] | 0.34 ± 0.057 kcal/mol | 0.0774 ± 0.3 kcal/mol
8 | SAGGSAGGSAGFLVLVTDVKENPETGTFSIYLPSTGSVKTFPPNTKAVIPAAPDEPVFVAPESAGGSAGGSA [r18_329_TrMRF] | -0.314 ± 0.11 kcal/mol | < -1 kcal/mol
9 | SASLENGGVKTVEDTEYDPATNTVTFKKVTTYYGDEVLSTSTATVPLPPKPLPPPPVVERDPTNPRYLESAG [r14_571_JUSTAS] | -0.368 ± 0.91 kcal/mol | < -1 kcal/mol
10 | SAGGSAGGSAPAEFPIEILEVERNPGNPMVEVGIKIPGDGRYIKIHFPPNGKIDIELVPLPSAGGSAGGSAG [r3_294_TrROS] | 0.265 ± 0.1 kcal/mol | -0.29 ± 0.16 kcal/mol
11 | SAGGSPKPIAEAILKELGYPDAIVKNIPIEKLENGIIIIPLEVIYPKNPKKGKPIKRIIKPNEKFASAGGSA [r2_137_TrMRF] | 0.108 ± 0.095 kcal/mol | < -1 kcal/mol
12 | SAGGSAGGSAGGWVFDSDDYPKFQDAAKDHGLKPKSINDDDNTMTVDPEDPNRIRDAINESAGGSAGGSAGG [r7_285_TrROS] | -0.147 ± 0.21 kcal/mol | < -1 kcal/mol
13 | SAGGSSMEELIKAVLEAAEAGKKAVNVKMPLPDGGEIEILDGGVIRIIPPDGVPLEEKIPVSELILSAGGSA [r2_97_JUSTAS] | 0.442 ± 0.044 kcal/mol | < -1 kcal/mol
14 | SAGGSAGGSAGGEILIFDDNGKRIIVIPIPPENRYRVVVIHENTGIPEVKEAKLEEVLSSAGGSAGGSAGGS [r10_482_TrMRF] | 0.92 ± 0.055 kcal/mol | 0.104 ± 0.28 kcal/mol
15 | SAGGSAGGSAGGPPEITVEHHPPNGYMTLTIPDGRPIEIPMPPNRPPSDVKNRAKDLIKSAGGSAGGSAGGS [r10_33_TrROS] | -0.457 ± 0.39 kcal/mol | < -1 kcal/mol
16 | SAGGSAEKLEEAIEEAKKVPEGAEVPILITVEKDGKPVVFEVKITRLPKEKKIKIDPLKAYLPEEFSAGGSA [r15_724_TrMRF] | -0.63 ± 0.39 kcal/mol | < -1 kcal/mol
17 | SMPVTFTMKTPENRKKLEEAIKEIEEEYPIKVEEVEKDPKGTYTYKVEMDPEIIEKVKKKLEEAGNVTLESA [r9_472_JUSTAS] | -0.343 ± 0.23 kcal/mol | -0.822 ± 0.97 kcal/mol
18 | SAGGSAGGMTVPASSYEGVPLKVTVSRGDENVSAEEAEVTPLPDGTVVVKLPESLPEDTEVTLESAGGSAGG [r6_630_JUSTAS] | 0.703 ± 0.047 kcal/mol | -0.137 ± 0.13 kcal/mol
19 | SAGGSDYVGRVQIDKVDPEDPGQVRINLEWWQPNGKAIPIEHTIPNEQLKNNPPDATIEFKMEPPPSAGGSA [r2_128_TrROS] | -0.514 ± 0.32 kcal/mol | < -1 kcal/mol

Row | Sequence | folding stability dG unfold [1] | folding stability dG unfold [2]
20 | SAGGSAGGSAGMEDLVTVTETVETTDTLRDEGGTPTGTTTTTTTVTKLLSPEKVAALKEASAGGSAGGSAGG [r11_620_JUSTAS] | -0.116 ± 0.021 kcal/mol | -0.85 ± 0.23 kcal/mol
21 | SAGGSAGGSAGGDPLERKPVKVLVLHPDKPIELEVDVGLSPEEIARPFAEKGYEVRFEGSAGGSAGGSAGGS [r10_540_TrMRF] | -1.17 ± 0.29 kcal/mol | -0.836 ± 0.39 kcal/mol
22 | SAGGSAGGSAMIVVTLDDPEEAREAVRARFGPEVEITPLETTTVGDRVFTKIAVRVPPELASAGGSAGGSAG [r3_87_JUSTAS] | -0.351 ± 0.19 kcal/mol | -0.395 ± 0.24 kcal/mol
23 | SAGGSAGGSAKEVEVEVEEELPGGYYRATVRLPGEEKPLEVVVKGPREDALKAAEELAKEESAGGSAGGSAG [r3_104_TrMRF] | -0.0768 ± 0.16 kcal/mol | < -1 kcal/mol
24 | SAGGSAGGSAGGETVVEEDPAAGTTVVTYHEPLPTPSTRENVTTLTHDPSSSAATTTESSAGGSAGGSAGGS [r10_1041_JUSTAS] | -1.14 ± 0.27 kcal/mol | < -1 kcal/mol
25 | SAGGSAGGSAGGSSTITIGDSEVSVTADPKAPVATASYPASGVTFTITRPDASVTITPTPSAGGSAGGSAGG [r7_156_JUSTAS] | -0.783 ± 0.42 kcal/mol | < -1 kcal/mol
26 | SAGGSAGGSAGGRMYPITFPGKTIEDIEEEIEELPPNYQINIDHDENGHMKVWIMPPDDFSAGGSAGGSAGG [r7_662_TrROS] | -0.422 ± 0.33 kcal/mol | < -1 kcal/mol
27 | SAGGSAGGSAGSKTITFIMVHPDDGYISDMEMRYTDNGIEMEMEWIPVPKEDAEELKDLISAGGSAGGSAGG [r11_47_TrROS] | 0.225 ± 0.036 kcal/mol | -0.044 ± 0.19 kcal/mol
28 | SAGGSAGGMITIPINTPGLSPAEAAAIKAQLEADGYPAAEVTITASPVPPVPPLGPENIYSNRGSAGGSAGG [r6_246_JUSTAS] | -0.0678 ± 0.047 kcal/mol | < -1 kcal/mol
29 | SAGGSAGGSEGQPIIIKIKMENPGNGKKHKFDIMVPPGFKNAEEQANRLMNNFGPVKDVEIYPSAGGSAGGS [r12_942_TrROS] | -0.846 ± 0.3 kcal/mol | < -1 kcal/mol
30 | SAGGSAGGSAKITITAPPGETYRIKVKVKNENGEWKEVTRTIKVGEPLEDIEEVEIERIEPESAGGSAGGSA [r18_223_TrROS_Hall] | 0.0462 ± 0.12 kcal/mol | -0.146 ± 0.27 kcal/mol
31 | SAGMTTETTEKTAPDGKTRTTTVTYPSEEKAADTTTVVVTETPVETDGSERILTTTTVYKNGVKVATTGSAG [r14_958_JUSTAS] | -0.851 ± 0.56 kcal/mol | < -1 kcal/mol
32 | SGPDVPLTPEEVAARIKAELLEKHPIGEVTPVELREFPELGVVEVRLRINVKGPPGETREIDVRLSRERLSA [r9_1002_JUSTAS] | 0.694 ± 0.13 kcal/mol | 0.0428 ± 0.21 kcal/mol
33 | SAGGSAGGSAGPMIKIGSTTRPFTPPLGGRLEYAPIDVDQSEEVAKEVAEELKPKGVIVNLSAGGSAGGSAG [r3_157_JUSTAS] | -0.774 ± 0.35 kcal/mol | < -1 kcal/mol
34 | SAMKTTETITVTVEMEPEVAEEVAEEIAEKIEKEKNYEITEVKVSVFPTDGKYVVRVPIKITYPTPELKSAG [r14_219_JUSTAS] | -0.771 ± 0.42 kcal/mol | < -1 kcal/mol
35 | SAGGSAGGSAGGMEKKLTLVTTRTPEGGSETILVDDSDPEKVRAELEEAGWTITETTSSSAGGSAGGSAGGS [r10_882_JUSTAS] | -0.793 ± 0.95 kcal/mol | < -1 kcal/mol
36 | SAGGSAGGSAGGMPVVVINTPSEEEAEKEKAKLEEDPEYKDGPINFIYIPPGTLPENVPLSAGGSAGGSAGG [r7_976_JUSTAS] | 0.286 ± 0.072 kcal/mol | < -1 kcal/mol
37 | SAGGMVSPEVVKAALDDGNPLPLSEIVARIEAETGLPVEVETGDDSFRIVIRDPNRDVELSSETILLSAGGS [r8_105_JUSTAS] | 0.292 ± 0.057 kcal/mol | -0.399 ± 0.25 kcal/mol
